The values that follow come from patent US20240150451A1 (Janssen / Centocor, published 2024).

For orientation: EC50 (read off the curve) means the concentration that produces a half-maximal response.

Residue numbers refer to the chain shown, from its start.

In experiment [1] the target is T1, recombinant full-length tau 2N4R (control tau) (human, UniProt P10636 2-758).
T1 construct: also called recombinant WT (2N4R) tau; Rec; Tau
In words: direct ELISA on full-length 2N4R Tau coated at 1 ng/mL. As to the method: (§1) Binding to recombinant WT (2N4R) tau was analyzed by ELISA. Full-length Tau protein (1 ng/mL or 10 ng/mL) was directly coated to the plate and incubated with different concentrations of either recombinantly- or hybridoma-produced PT/66, PT/69 or hTau/60 antibodies (FIG. 1). […] No substantial difference was observed between binding profiles of recombinant and hybridoma produced antibodies.
A general note: In an ELISA, binding on a coated surface is turned into a signal by an enzyme label.

The target in experiment [2] is T1, recombinant full-length tau 2N4R …. In words: direct ELISA on full-length 2N4R Tau coated at 10 ng/mL. As to the method:
as §1

Experiment [3] deals with T2, Tau peptide Start 417 Stop 436.
T2 peptide: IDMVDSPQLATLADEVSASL
In words: Pepscan ELISA on an array of linear 20-mer Tau 441 peptides. Set-up: peptide ELISA signal (no name or unit printed): unit not given here. An excerpt:
(§2) An amino functionalized polypropylene support was obtained by grafting with a proprietary hydrophilic polymer formulation, followed by reaction with t-butyloxycarbonyl-hexamethylenediamine (BocHMDA) using dicyclohexylcarbodiimide (DCC) with N-hydroxybenzotriazole (HOBt), and subsequent cleavage of the Boc-groups using trifluoroacetic acid (TFA). Standard Fmoc-peptide synthesis was used to synthesize peptides on the amino-functionalized solid support by custom modified JANUS liquid handling stations (Perkin Elmer). Synthesis of structural mimics was done using Pepscan's proprietary Chemically Linked Peptides on Scaffolds (CLIPS) technology. CLIPS technology allows to structure peptides into single loops, double loops, triple loops, sheet-like folds, helix-like folds, and combinations thereof. CLIPS templates are coupled to cysteine residues. The side-chains of multiple cysteines in the peptides are coupled to one or two CLIPS templates. For example, a 0.5 mM solution of the P2 CLIPS (2,6-bis(bromomethyl)pyridine) is dissolved in ammonium bicarbonate (20 mM, pH 7.8)/acetonitrile (1:3 (v/v)). This solution is added onto the peptide arrays. The CLIPS template will bind to side-chains of two cysteines as present in the solid-phase bound peptides of the peptide-arrays (455 wells plate with 3 μl wells). The peptide arrays are gently shaken in the solution for 30 to 60 minutes while completely covered in solution. Finally, the peptide arrays are washed extensively with excess of H₂O and sonicated in disrupt-buffer containing 1% SDS/0.1% beta-mercaptoethanol in PBS (pH 7.2) at 70° C. for 30 minutes, followed by sonication in H₂O for another 45 minutes. The T3 CLIPS carrying peptides were made in a similar way but now with three cysteines.
(§3) The binding of antibodies (recombinantly expressed as IgG2a) to each of the synthesized peptides was tested in a pepscan-based ELISA. The peptide arrays were incubated with primary antibody solution (overnight at 4° C.). After washing, the peptide arrays were incubated with a 1/1000 dilution of an appropriate antibody peroxidase conjugate (SBA; Table 4) for one hour at 25° C. After washing, the peroxidase substrate 2,2′-azino-di-3-ethylbenzthiazoline sulfonate (ABTS) and 20 μl/ml of 3 percent H₂O₂ were added. After one hour, the color development was measured.

Experiment [4] deals with T3, Tau peptide Start 419 Stop 438.
T3 peptide: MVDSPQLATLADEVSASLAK
The experiment is described as above. Set-up: peptide ELISA signal (no name or unit printed): unit not given here.
Excerpt: as §2, §3

Experiment [5] addresses Tau peptide Start 1 Stop 20 (Synthetic linear peptide immobilised on a Pepscan array; the attachment to the array cannot be carried by the letters.). The experiment is described as above. Set-up: peptide ELISA signal (no name or unit printed): unit not given here.
Excerpt: as §2, §3

Experiment [6] has as its target T4, Tau peptide Start 3 Stop 22 (Synthetic linear peptide immobilised on a Pepscan array; the attachment to the array cannot be carried by the letters.).
T4 peptide: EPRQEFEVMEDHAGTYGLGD
Described as above. Further details: peptide ELISA signal (no name or unit printed): unit not given here.
Excerpt: as §2, §3

Experiment [7] deals with T5, Tau peptide Start 422 Stop 441.
T5 peptide: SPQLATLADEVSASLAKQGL
The description is as above. Further details: peptide ELISA signal (no name or unit printed): unit not given here.
Excerpt: as §2, §3

In experiment [8] the target is T6, Tau peptide Start 421 Stop 440.
T6 peptide: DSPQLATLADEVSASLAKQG
Described as above. Set-up: peptide ELISA signal (no name or unit printed): unit not given here.
Excerpt: as §2, §3

Experiment [9] concerns the target T7, Tau peptide Start 411 Stop 430.
T7 peptide: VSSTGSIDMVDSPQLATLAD
Described as above. Set-up: peptide ELISA signal (no name or unit printed): unit not given here.
Excerpt: as §2, §3

The target in experiment [10] is T8, Tau peptide Start 413 Stop 432.
T8 peptide: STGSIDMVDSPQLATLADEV
The experiment is described as above. Set-up: peptide ELISA signal (no name or unit printed): unit not given here.
Excerpt: as §2, §3

Experiment [11] concerns the target T9, Tau peptide Start 415 Stop 434.
T9 peptide: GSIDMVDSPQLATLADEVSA
The experiment is described as above. Further details: peptide ELISA signal (no name or unit printed): unit not given here.
Excerpt: as §2, §3

Experiment [12] addresses T10, PHF-tau (paired helical filament tau; sarcosyl insoluble prep from human AD brain) (human, UniProt P10636-8 2-441, limits assumed, hyper-phosphorylated (sites not specified)).
T10 construct: also called aggregated PHF Tau; aggregated tau (AD brain)
The experiment in a line: SPR (ProteOn), mAb on PHF-tau, bivalent analyte fit; apparent affinity (avidity). As to the method:
The interactions with PHF-tau and recombinant tau were assessed by SPR on ProteOn (Bio-Rad, Hercules, CA) instrument for PT66, PT69, hTau60 anti-tau antibodies and their corresponding Fab fragments. Because of the multimeric/aggregated nature of PHF-tau with multiple copies of the epitope, and the bivalent nature of IgGs, mAb affinity was influenced by avidity in this study format. Fab affinity provides information on the intrinsic affinity of the antibody. Representative sensorgrams of mAbs and their Fab fragments binding to PHF Tau are shown in FIG. 3 and a summary is represented in Table 1 below. HT7 was used as a reference.

T1 sequence (P10636 other isoform, or with tags, fused parts or gaps limits assumed): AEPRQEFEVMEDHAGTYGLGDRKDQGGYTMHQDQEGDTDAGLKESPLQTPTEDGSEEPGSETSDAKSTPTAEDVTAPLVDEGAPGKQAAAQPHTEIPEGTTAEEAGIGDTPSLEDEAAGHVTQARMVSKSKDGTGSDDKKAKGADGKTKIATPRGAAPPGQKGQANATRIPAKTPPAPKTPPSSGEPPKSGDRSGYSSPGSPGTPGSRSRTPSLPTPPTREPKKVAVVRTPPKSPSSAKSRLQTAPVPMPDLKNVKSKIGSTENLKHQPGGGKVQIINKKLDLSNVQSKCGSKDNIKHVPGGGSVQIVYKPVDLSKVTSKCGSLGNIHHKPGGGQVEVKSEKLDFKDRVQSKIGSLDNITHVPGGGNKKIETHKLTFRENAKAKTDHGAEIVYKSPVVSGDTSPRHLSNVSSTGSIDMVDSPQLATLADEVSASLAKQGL
Chain of Tau peptide Start 1 Stop 20 (Synthetic linear peptide immobilised on a Pepscan array; the attachment to the array cannot be carried by the letters.) (peptide, as listed by the source limits assumed): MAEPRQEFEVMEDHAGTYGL

B1: hTau60 monoclonal antibody (recombinant, mouse IgG2a/kappa) (antibody, V domains shown)
VH: EVQLQQSGPELVKPGTSVKISCKVFGYTFTDYYMNWVKQSHGKSLEWIGDINPDNGETTYNQKFKGKATLTVDKSSSTAYMELRSLTSEDSAVYYCAKGATFVYWGQGTLVTVSA
VL: DVVMTQTPLSLPVSLGDQASISCISSQSLVHSTGTTFLHWFLQKPGQSPKLLIYKVSNRFSGVPDRFSGSGSGTDFTLKISRVEAEDLGFYFCSQSTYFPLTFGSGTKLEIKR
notes: also called hTau60 (PT1B469)
Take B1: the concentration giving a half-maximal response (EC50 (read off the curve)) in [1] and in experiment [2] was roughly 0.01 µg/mL throughout. The binding result in experiment [3], in experiment [4], in [10] and in [11] was “no binding” in each case. In addition, the “peptide ELISA signal (no name or unit printed)” value is 48 in experiment [3]; 45 in experiment [4]; 48 in experiment [5]; 44 in experiment [6]; 2920 in [7]; 2910 in experiment [8]. The “peptide ELISA signal (no name or unit printed)” value in [9] was determined as 36; in [10], 46; in [11], 24. Besides, the Kd in experiment [12] was 0.069 nM.

B2: hTau/60 hybridoma (antibody, V domains shown)
VH: B1 VH
VL: DVVMTQTPLSLPVSLGDQASISCISSQSLVHSTGTTFLHWFLQKPGQSPKLLIYKVSNRFSGVPDRFSGSGSGTDFTLKISRVEAEDLGFYFCSQSTYFPLTFGSGTKLEIK
notes: parent of m1; also called hybridoma-produced hTau/60
For the molecule B2, the “EC50 (read off the curve)” value in experiment [1] and in experiment [2] was roughly 0.005 µg/mL throughout.

B3: PT/66 hybridoma (antibody, V domains shown)
VH: QVQLQQPGAELVKPGASVKMSCKASGYTFTSYWITWVKQRPGQGLEWIGDIHPGRGSTKSNEKFKSKATLTVDTSSSTAYMQFSSLTSEDSAVYYCARRWGFDYWGQGTTLTVSS
VL: DIVITQDELSNPVTSGESVSISCRSSKSLLYKDGKTYLNWFLQRPGQSPQLLIYLMSTRASGVSDRFSGSGSGTDFTLEISRVKAEDVGVYYCQQLVDYPLTFGAGTKLELK
notes: parent of m2; also called hybridoma-produced PT/66
In the case of B3, the “EC50 (read off the curve)” value was roughly 0.01 µg/mL in experiment [1] and roughly 0.005 µg/mL in [2].

B4: PT66 monoclonal antibody (recombinant, mouse IgG2a/kappa) (antibody, V domains shown)
VH: B3 VH
VL: DIVITQDELSNPVTSGESVSISCRSSKSLLYKDGKTYLNWFLQRPGQSPQLLIYLMSTRASGVSDRFSGSGSGTDFTLEISRVKAEDVGVYYCQQLVDYPLTFGAGTKLELKR
notes: also called PT66 (PT1B545)
Turning to B4, the “EC50 (read off the curve)” value in experiment [1] is roughly 0.04 µg/mL; in experiment [2], roughly 0.01 µg/mL. The “peptide ELISA signal (no name or unit printed)” value came to 2940 in [3]; 2930 in experiment [4]; 40 in [5]; 45 in [6]; 2950 in experiment [7]; 2930 in experiment [8]. Also, the figures for the “peptide ELISA signal (no name or unit printed)” value in [9], in [10] and in experiment [11] were 50, 2520 and 2930, respectively. Also, the Kd in experiment [12] was determined as 0.056 nM.

B5: PT69 monoclonal antibody (recombinant, mouse IgG2a/kappa) (antibody, V domains shown)
VH: B3 VH with S31N, H52Y, R55S, S57R, S66N, V72A, F83L, A97T, F102L
VL: B4 VL with S26N
notes: also called PT69/PT87; PT69 (PT1B548)
As to B5, the “peptide ELISA signal (no name or unit printed)” value in experiment [3] amounted to 2920; in experiment [4], 2920; in [5], 30; in [6] it was 38; in experiment [7], 2930; in [8], 2930. Also, the “peptide ELISA signal (no name or unit printed)” value stood at 43 in experiment [9], 1380 in experiment [10] and 2830 in experiment [11].
